We go through five molecules from paper PMC10151520, “TapA acts as specific chaperone in TasA filament formation by strand complementation” (Proceedings of the National Academy of Sciences of the …, 2023).

The target in series [1] is T1, TasA (mature protein, residues 28 to 261) (Bacillus subtilis (strain 168), UniProt P54507).
T1 chain: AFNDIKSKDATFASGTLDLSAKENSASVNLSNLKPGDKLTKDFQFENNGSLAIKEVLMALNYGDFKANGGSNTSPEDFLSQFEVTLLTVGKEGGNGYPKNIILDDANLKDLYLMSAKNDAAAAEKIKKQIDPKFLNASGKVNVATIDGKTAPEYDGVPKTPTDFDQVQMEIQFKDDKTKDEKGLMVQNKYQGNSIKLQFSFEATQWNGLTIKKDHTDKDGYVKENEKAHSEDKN
In words: AUC (sedimentation velocity); 150 mM NaCl at pH 7 (no ITC response at 50 mM NaCl, pH 7); TapA-induced TasA oligomerization.

Series [2] concerns the molecule itself. In words: SEC; gel filtration of TapA constructs, without DTT. Background: In gel filtration, larger molecules generally elute earlier.
Series [3] concerns the molecule itself. In words: time course of 1H solution NMR signals of the monomer; one-dimensional 1H spectra over time after mixing; TasA at 125 or 250 µM with TapA or TapA variants (e.g. 5:1); legend: 20 °C, pH 7, 150 mM NaCl.
Series [4] has as its target T2, TasA (mature protein, residues 28 to 261) (Bacillus subtilis, UniProt P54507 28-261).
T2 construct: Used unlabelled or isotope-labelled (2H,13C,15N; 2H,15N; [2-13C]-glycerol) according to the experiment; also called translocation-dependent antimicrobial spore component; source: monomer separated by gel filtration
T2 sequence (looked up): T1 chain
Put plainly: AUC; sedimentation velocity of mixtures: 100 µM TasA with TapA (100, 70, 10, 4, 2 or 1 µM), TapA variants (100 µM) or 250 µM peptide; 20 °C, 20 mM Na phosphate pH 7.0, 150 mM NaCl, 40,000 rpm, runs of 17 h. As to conditions: both partners purified.

B1: TapA (mature protein, residues 44 to 253) (protein)
chain: AFHDIETFDVSLQTCKDFQHTDKNCHYDKRWDQSDLHISDQTDTKGTVCSPFALFAVLENTGEKLKKSKWKWELHKLENARKPLKDGNVIEKGFVSNQIGDSLYKIETKKKMKPGIYAFKVYKPAGYPANGSTFEWSEPMRLAKCDEKPTVPKKETKSDVKKENETTQKDIPEKTMKEETSQEAVTKEKETQSDQKESGEEDEKSNEADQ
Consider B1, for which, in series [1], the binding result is recorded as “binds”.

B2: TapA_(66-190) (domain or fragment, B. subtilis 168, UniProt P40949 66-190, looked up)
chain: KNCHYDKRWDQSDLHISDQTDTKGTVCSPFALFAVLENTGEKLKKSKWKWELHKLENARKPLKDGNVIEKGFVSNQIGDSLYKIETKKKMKPGIYAFKVYKPAGYPANGSTFEWSEPMRLAKCDE
notes: TapA of Bacillus subtilis 168, residues 66 to 190; Odd number of cysteines (free C68)
For the molecule B2, the stoichiometry N (as a rule, the number of molecules, sites or subunits per partner or assembly) in series [2] was determined as 2.

B3: TasA_(28-239) (domain or fragment, Bacillus subtilis, UniProt P54507 28-239, looked up)
chain: AFNDIKSKDATFASGTLDLSAKENSASVNLSNLKPGDKLTKDFQFENNGSLAIKEVLMALNYGDFKANGGSNTSPEDFLSQFEVTLLTVGKEGGNGYPKNIILDDANLKDLYLMSAKNDAAAAEKIKKQIDPKFLNASGKVNVATIDGKTAPEYDGVPKTPTDFDQVQMEIQFKDDKTKDEKGLMVQNKYQGNSIKLQFSFEATQWNGLTIK
Regarding B3, the binding result in series [3] is “binds”.

B4: TapA_(44-190) (domain or fragment, B. subtilis 168, UniProt P40949 44-190, looked up)
chain: AFHDIETFDVSLQTCKDFQHTDKNCHYDKRWDQSDLHISDQTDTKGTVCSPFALFAVLENTGEKLKKSKWKWELHKLENARKPLKDGNVIEKGFVSNQIGDSLYKIETKKKMKPGIYAFKVYKPAGYPANGSTFEWSEPMRLAKCDE
notes: also called TapA without residues beyond E190; variant with deleted C terminus
Turning to B4, the binding result in series [4] was “binds”.

B5: TapA_(60-190) (domain or fragment, B. subtilis 168, UniProt P40949 60-190, looked up)
chain: DFQHTDKNCHYDKRWDQSDLHISDQTDTKGTVCSPFALFAVLENTGEKLKKSKWKWELHKLENARKPLKDGNVIEKGFVSNQIGDSLYKIETKKKMKPGIYAFKVYKPAGYPANGSTFEWSEPMRLAKCDE
notes: TapA of Bacillus subtilis 168, residues 60 to 190; Odd number of cysteines (free C68)
For B5, the “stoichiometry N” value in series [2] was determined as 2.
